From patent US12459987B2, “Monoclonal antibodies for prevention and treatment of herpes simplex viral infections” (priority 2019, dated 2025)
Positions count from the first letter of the chain named. “Also recorded” adds a separate entry of the source.

B1: HSV010-9: gB-1 specific mouse monoclonal IgG; IgH SEQ ID NO: 48, IgL SEQ ID NO: 50 (antibody, V domains shown)
VH: QVQLQQPGAELVKPGASVKLSCKSSGYTFTSYWMHWVKQRPGQGLEWIGMIHPNSGITHYNEKFKTKATLTVDKSSSTAYMQLSSLTSEDSAVSYCARGSNSGSAWFAYWGQGTLVTVSAA
VL: DIQMTQSSSYLSVSLGGRVTITCKASDHINNWLAWYQQKPGNAPRLLISGATSLETGVPSRFSGSGSGKDYTLSITSLQTEDVATYYCQQYWSTPLTFGAGTKLELKR
modifications: HSV010-9 heavy chain; HSV010-9 light chain
B2: HSV010-14: gB-1 specific mouse monoclonal IgG; IgH SEQ ID NO: 56, IgL SEQ ID NO: 58 (antibody, V domains shown)
VH: B1 VH with S24A, M34I, T58A, N61S, T66S, K67T, A92S, S94Y, N101S
VL: B1 VL with S26G
modifications: HSV010-14 heavy chain; HSV010-14 light chain
B3: HSV010-13: gB-1 specific mouse monoclonal IgG; IgH SEQ ID NO: 52, IgL SEQ ID NO: 54 (antibody, V domains shown)
VH: B1 VH with S24A, M34I, R40G, S94C, N101S
VL: B1 VL with V13E, T94S
modifications: HSV010-13 heavy chain; HSV010-13 light chain
B4: HSV010-28: gB-1 specific mouse monoclonal IgG; IgH SEQ ID NO: 60, IgL SEQ ID NO: 62 (antibody, V domains shown)
VH: QIQLVQSGPELKKPGETVKISCKASGYTFTTYGMSWVKQAPGKGLKWMGWINTYSGVSTYADDFKGRFAFSLETSASTAYLQINNLKNEDTATYFCAQVNYAMDYWGQGTSVTVSSA
VL: DIVMTQSHKFLSTSVGDWVTITCKASQDVSTAVAWFQQKPGQSPKVLIYSASYRYTGVPDRFTGSGSGTDFTFTISSVQAEDLAVYYCQQHYSTPRTFGGGTKLEIKR
modifications: HSV010-28 heavy chain; HSV010-28 light chain
B5: 22D10: monoclonal antibody from germinal center B cell; IgH SEQ ID NO: 24, IgL SEQ ID NO: 26 (antibody, V domains shown)
VH: DVQLQESGPALVKPSQTVSLTCTVTGYSITNGNHWWNWIRQVSGSKLEWLGYIRSSGSSDSNPSLKSRISITRDTSKNQLFLHLNSMTTEDIATYYCARGGGLRHYFDYWGQGTTLTVSSA
VL: DIQMTQSPASLSASVGDTVTITCRASGNIHNYLAWYHQKQGKSPQLLVYHAETLTDGVPSRFSGSGSGTQYSLKINSLQPEDFGSYYCQHFWSTPYTFGGGTKLEIKR
modifications: 22D10 heavy chain; 22D10 light chain

Experiments:
[1] = system: HSV-2 G infected cell lysates; test: ELISA binding of recombinant antibodies to HSV-2 G infected cell lysates; design: species or system HSV-2 G strain; settings: for Binding to HSV-lysate: Table 3 summary
Protocol: Binding of recombinant antibodies to HSV-2 G lysates was tested by ELISA. Both heavy and light chain V(D)J rearrangements were amplified from selected single B-cell culture wells (22D10, 32H6, 33B8, and 35H7) by standard RT-PCR. These cloned V(D)J rearrangements were introduced into expression vectors. Recombinant antibodies were obtained by co-transfection of these expression vectors into Expi293F cells. ≥4 mg of purified IgGs was obtained (not shown). […]
Briefly, mice were vaccinated with ΔgD-2 and then 16 days after vaccination, the draining, inguinal lymph nodes were harvested. GC B cells were isolated from these tissues and were cultured in Nojima cultures. Although overall cloning efficiency of GC B cells from these (shipped) tissues was lower than those from freshly isolated tissues (6% vs. 20%), 50 GC clones were obtained that were specific to HSV-2 G strain (HSV-2 G or HSV2-G) lysate. GC B cells from inguinal lymph nodes of mice vaccinated with ΔgD-2 were sorted directly into 96-well plates (1 cell/well). These GC B cells were then cultured in the presence of NB-21.2D9 feeder cells. After culture, presence of IgG was first determined by ELISA, and then the reactivity of culture supernatant IgG against HSV-2 G lysates (HSV-2 G) and uninfected Vero lysates were tested by ELISA.
Based on the obtained V(D)J sequences from each B-cell culture, paired heavy and light chains were re-expressed (as recombinant mouse IgG1 and IgG2c antibodies) in Expi293F cells (Kuraoka et al. Immunity 2016; DiLillo et al. Nature Medicine 2013). […] As expected, all recombinant antibodies reacted specifically with HSV-2 G lysates (FIG. 3). […] Binding of recombinant antibodies to HSV-2 G lysates was tested by ELISA. Both heavy and light chain V(D)J rearrangements were amplified from selected single B-cell culture wells (22D10, 32H6, 33B8, and 35H7) by standard RT-PCR. These cloned V(D)J rearrangements were introduced into expression vectors. Recombinant antibodies were obtained by co-transfection of these expression vectors into Expi293F cells. ≥4 mg of purified IgGs was obtained (not shown). […] These recombinant antibodies (≥4 mg each) were tested for identification of reacting antigen(s), in an in vitro FcγRIV activation assay (Promega FcγRIV ADCC Reporter Bioassay)(FIG. 4), and in vivo protection assay. […]

[2] = biological target: glycoprotein B of HSV-1 (gB-1) (Human herpesvirus 1, UniProt P10211); test: Luminex multiplex assay, binding to gB-1; settings: Table 3 summary
Protocol: FIGS. 9A and 9B are graphs of median fluorescence intensity (MFI) versus IgG concentration (ng/ml), showing the binding of various recombinant antibodies to gB-1 as measured by Luminex multiplex assay.
BMPC-23 binds HSV-1 gB (gB-1). The gB-1 binding of the antibodies was determined by Luminex multiplex assay. Mixtures of antigen (gB-1)-conjugated microspheres (1,000 counts each) were added to each well of 96-well filter plates (Millipore). After washing with PBS containing 1% BSA, 0.05% Tween 20 and 0.05% NaN3, serially diluted recombinant antibodies (5E7, 19G7, 18G4, 22E10, 3A2, 17G3, 22D10, 32H6, 33B8, 25H7, BMPC-23, and S5V2-29) were added to the plates and incubated for 2 hours at room temperature, with mild agitation of the plates. Samples were diluted in PBS containing 1% cow milk, 1% BSA, 0.05% Tween 20 and 0.05% NaN3. After washing, PE goat anti-mouse IgG was added to the plates and incubated for 1 hour at room temperature with mild agitation. After washing, microspheres were resuspended in PBS containing 1% BSA, 0.05% Tween 20 and 0.05% NaN3 and fluorescent signals from each microsphere were measured in a Bio-Plex® 3D machine.
Finding gB-1 specific HSV antibodies. After Nojima culture (single B-cell culture), HSV-specific antibodies were cloned from germinal center B cells and tested for binding to HSV-1 gB-1 by Luminex multiplex assay as described above. FIGS. 9A and 9B show the gB-1 binding results for 10 antibodies in comparison with BMPC-23. With the exception of BMPC-23, the antibodies in Table 3 were derived from germinal center B cells (lymph nodes) taken 15-17 days after primary vaccination with ΔgD-2. BMPC-23 was derived from bone marrow plasmacytes taken 2 weeks post-boost with ΔgD-2. Nucleotide sequences and amino acid sequences for the heavy-chains and light chains are shown in Table 4, as are the amino acid sequences for the light chain and heavy chain CDR1, CDR2, and CDR3.

gB-1 = gB-1 (Human herpesvirus 1, UniProt P10211); test: Luminex competition: inhibition of binding of BMPC-23 human IgG to gB-1; design: species or system HSV-1; settings: Table 3 summary
Protocol: FIGS. 10A-10G show the capacity of gB-1 specific mouse monoclonal IgG antibodies to inhibit binding of BMPC-23 human IgG antibodies to gB-1.
Finding BMPC-like antibodies. Nine out of 10 gB-1 specific mouse monoclonal IgG antibodies in FIG. 3 were tested for their capacity to inhibit binding of BMPC-23 human IgG antibodies to gB-1. Serially diluted, gB-1 specific mouse monoclonal antibodies or irrelevant, control mouse antibody (H33Lγ1) were incubated with gB-1 conjugated Luminex beads. After incubation, fixed concentration (2 ng/ml) of BMPC-23 human IgG antibodies were added to each well. After washing, mouse anti-human lgG-PE was added to detect binding of human BMPC-23 antibodies. […] Strong inhibition by HSV010-4 (>95% at 222 ng/ml), HSV010-7 (>90% at 222 ng/ml), and HSV010-34 (>80% at 222 ng/ml), shown in FIGS. 10B, 10F, and 10G, respectively, indicates these antibodies bind epitopes on gB-1 closely overlapping with the one recognized by BMPC-23. Therefore, similar protective efficacy as BMPC-23 is expected from these antibodies (experiments in progress). […] Protective efficacy of these antibodies need to be tested (experiments in progress).

uninfected Vero lysate = test: ELISA binding to control uninfected Vero lysate
Protocol: Binding of recombinant antibodies to HSV-2 G lysates was tested by ELISA. Both heavy and light chain V(D)J rearrangements were amplified from selected single B-cell culture wells (22D10, 32H6, 33B8, and 35H7) by standard RT-PCR. These cloned V(D)J rearrangements were introduced into expression vectors. Recombinant antibodies were obtained by co-transfection of these expression vectors into Expi293F cells. ≥4 mg of purified IgGs was obtained (not shown).
Based on the obtained V(D)J sequences from each B-cell culture, paired heavy and light chains were re-expressed (as recombinant mouse IgG1 and IgG2c antibodies) in Expi293F cells (Kuraoka et al. Immunity 2016; DiLillo et al. Nature Medicine 2013). […] As expected, all recombinant antibodies reacted specifically with HSV-2 G lysates (FIG. 3). […] Binding of recombinant antibodies to HSV-2 G lysates was tested by ELISA. Both heavy and light chain V(D)J rearrangements were amplified from selected single B-cell culture wells (22D10, 32H6, 33B8, and 35H7) by standard RT-PCR. These cloned V(D)J rearrangements were introduced into expression vectors. Recombinant antibodies were obtained by co-transfection of these expression vectors into Expi293F cells. ≥4 mg of purified IgGs was obtained (not shown). […]

HSV-2 = test: Passive transfer in vivo protection assay, lethal HSV-2 challenge; design: species or system mice
Protocol: Mice were prime-boost immunized with ΔgD-2 and the spleens, draining lymph nodes or bone marrow were isolated. Germinal center (GC) B cells were then cultured on NB-21.2D9 cells (Nojima cultures). After culture, supernatants were screened for the presence of HSV-lysate binding IgG by ELISA. The V(D)J rearrangements amplified from selected GC B-cell cultures for the B-cell antigen receptor (BCR) repertoire analysis in GC B cell clones among individual mice were sequenced. Then, reconstituted antibodies from selected single GC B cell cultures and from single, bone marrow plasmacytes were evaluated for ability to activate the mFcγRIV in vitro and to protect mice in a passive transfer model.
Both IgG1 and IgG2c forms of 22D10, 33B8, and BMPC-23 antibodies (≥4 mg each) were assessed for reproducibility of in vivo protection assay, and any dependency on Ig isotype for protection. […] To test roles of Ig isotypes on ability to provide protection, IgG1 and IgG2c isotypes of these three antibodies were generated and assessed for ability to activate mFcγRIV signaling (as a measurement for ADCC), and for in vivo protection assay.

[3] = biological target: human herpesvirus glycoprotein B (gB) (Human herpesvirus 2, UniProt P08666); test: Immunoprecipitation-Mass Spectrometry (IP-MS) target identification; assay type: binding
Protocol: FIG. 7A-7B. Immunoprecipitation-Mass Spectrometry (IP-MS) was performed to identify the binding targets of 22D10, 33B8, and BMPC-23 antibodies.
IP-MS was performed to identify the targets of 22D10, 33B8, and BMPC-23 antibodies.

Row | Molecule | Binding to HSV-lysate [1] | Target antigens [2] | Competition with BMPC-23 (gB-1) | Binding of recombinant antibodies to HSV-2 G lysates ([1]; ELISA, recombinant antibodies expressed in Expi293F cells) | Binding to control, uninfected Vero lysate (uninfected Vero lysate) | Mice protected from lethal challenge (HSV-2; IgG2c version, overall results from 2 independent experiments, passive transfer) | in vivo protection (HSV-2; Table 3 summary) | Protection against lethal HSV-2 challenge (HSV-2; as IgG2c, passive transfer, overall survival, epithelial and neurological assays) | Binding target identified by IP-MS [3]
1 | B1 | Yes | gB | Weak | – | – | – | – | – | –
2 | B2 | Yes | gB | Weak | – | – | – | – | – | –
3 | B3 | Yes | gB | Weak | – | – | – | – | – | –
4 | B4 | Yes | gB | Weak | – | – | – | – | – | –
5 | B5 | Yes | (not gB) | – | Retention of HSV-2 G lysate-binding | did not bind | 5/10 | Yes | significant protection; also recorded: provides protection | human herpesvirus glycoprotein B (gB)
